# Experimental data published in PMC3037364.
# Biological target: TgAMA1, intact full-length integral membrane form (Toxoplasma gondii (endogenous in RH strain parasites)) (UniProt B6KAM0)
# UniProt B6KAM0, sequence (B6KAM0 67-569): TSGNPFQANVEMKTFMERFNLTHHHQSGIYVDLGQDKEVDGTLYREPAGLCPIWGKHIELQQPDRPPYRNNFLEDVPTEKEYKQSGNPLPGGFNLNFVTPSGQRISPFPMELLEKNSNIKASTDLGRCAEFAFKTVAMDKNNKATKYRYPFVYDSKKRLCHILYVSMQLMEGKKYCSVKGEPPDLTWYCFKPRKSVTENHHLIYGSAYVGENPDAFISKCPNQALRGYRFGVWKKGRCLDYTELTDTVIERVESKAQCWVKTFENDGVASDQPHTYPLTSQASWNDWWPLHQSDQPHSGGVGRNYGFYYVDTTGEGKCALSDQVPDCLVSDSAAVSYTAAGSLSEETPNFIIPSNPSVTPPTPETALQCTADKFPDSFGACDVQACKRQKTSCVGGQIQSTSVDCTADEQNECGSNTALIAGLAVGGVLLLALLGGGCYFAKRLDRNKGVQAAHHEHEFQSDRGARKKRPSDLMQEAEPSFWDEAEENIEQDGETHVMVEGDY
substance,measurement,value
GST-domain 3 (D3) of TgRON2 (domain or fragment),"decrease in invasion efficiency of RHΔama1/AMA1-myc parasites (about 10% of wild-type TgAMA1 level) after pre-incubation with 2.5-5 µM GST-D3, relative to buffer control",87%
